The assay concerns the target TNFα (R&D Systems cat# 210-TA) (UniProt P01375). Nature of the assay: cell-based or functional assay.
UniProt P01375, sequence (P01375 77-233 limits assumed): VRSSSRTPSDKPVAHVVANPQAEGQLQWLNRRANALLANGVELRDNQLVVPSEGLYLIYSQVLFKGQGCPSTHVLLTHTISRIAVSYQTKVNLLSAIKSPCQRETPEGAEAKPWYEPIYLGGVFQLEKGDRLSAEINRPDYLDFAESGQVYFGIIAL

The substance TNFα binding protein (TBP) had an IC50 on TNFα-induced binding of Fibronectin-coated beads to BEND cells of 0.769 µg/mL.
